Substitutions are numbered along the chain they refer to.
T1: human CD73 (huCD73) protein, antigen of the Biacore assay (human, UniProt P21589 27-547, limits assumed)
T1 construct: also called human CD73 antigen
T1 sequence (looked up): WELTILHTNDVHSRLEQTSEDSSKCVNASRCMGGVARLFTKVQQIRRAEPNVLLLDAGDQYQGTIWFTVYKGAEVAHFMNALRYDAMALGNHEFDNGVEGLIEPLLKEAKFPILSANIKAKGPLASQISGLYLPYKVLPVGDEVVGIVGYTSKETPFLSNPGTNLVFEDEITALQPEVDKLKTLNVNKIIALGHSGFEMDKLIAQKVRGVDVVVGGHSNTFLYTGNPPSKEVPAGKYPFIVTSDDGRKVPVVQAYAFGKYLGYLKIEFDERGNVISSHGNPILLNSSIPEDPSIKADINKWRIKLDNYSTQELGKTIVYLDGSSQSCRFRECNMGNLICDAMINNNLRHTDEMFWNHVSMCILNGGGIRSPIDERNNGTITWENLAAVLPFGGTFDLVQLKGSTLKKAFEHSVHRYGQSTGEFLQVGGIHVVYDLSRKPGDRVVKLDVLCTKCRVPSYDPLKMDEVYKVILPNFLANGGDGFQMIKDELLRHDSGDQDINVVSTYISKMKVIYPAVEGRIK

T2: cynomolgus monkey CD73/NT5E protein (His tag), Sino Biological Cat. No. 90192-C08H (cynomolgus monkey, UniProt A0A2K5V5U7 27-547)
T2 construct: also called cynomolgus monkey CD73 protein; cynoCD73; not shown: His tag
T2 sequence: T1 sequence (looked up) with M199T, T350A, V466I

B1: Hab108.64 (antibody, human IgG1, kappa, V domains shown)
VH: EVTLKQSGPGLVKPTETLTLTCTVSGFSLSSYGIQWVRQPPGKGLEWLGVIWSGGSADYNAAFISRLTISKDTSKSQVVLTMTNMDPVDTATYYCAGQYGSVWGQGTLVTVSS
VL: DIQMTQSPSSLSASVGDRVTITCRASQDIGDRLNWLQQKPGGAIKRLIYATSSLDSGVPKRFSGSGSGTEYTLTISSLQPEDFATYYCLQYAGSWTFGGGTKVEIKR
notes: also called humanized antibody of mab108
B2: CPX006 (antibody CPX-006 disclosed in patent application WO2018013611) (antibody, V domains shown)
VH: QVQLVQSGAEVEKPGASVKVSCKASGYTFTSYWITWVRQAPGQGLEWMGDIYPGSGNTNYNEKFKTRVTITADKSTSTAYMELSSLRSEDTAVYYCAKEGGLTTEDYALDYWGQGTLVTVSS
VL: EIVLTQSPATLSLSPGERATLSCRASKNVSTSGYSYMHWYQQKPGQAPRLLIYLASNLESGIPPRFSGSGYGTDFTLTINNIESEDAAYYFCQHSRELPFTFGQGTKVEIKR
B3: Hab110.21 (antibody, human IgG1, kappa, V domains shown)
VH: EVQLVQSGAEVKKPGASVKVSCKASGYTFTSYTMHWVRQAPGQRLEWMGYINPNSFYIEYNQKFKDRVTITRDTSASTAYMELSSLRSEDTAVYYCARGDYDLFYDMDNWGQGTTVTVSS
VL: DIQMTQSPSSLSASVGDRVTITCRASQDIGNSLNWLQQKPGKAIKRLIYATFRLDSGVPSRFSGSRSGTEYTLTISSLQPEDFATYYCQQYASFPWTFGGGTKVEIKR
notes: also called humanized antibody of mab110
B4: Hab127.31d (antibody, human IgG1, kappa, V domains shown)
VH: EVQLVQSGAEVKKPGASVKVSCKASGYTFTAYFMNWVRQAPGQGLEWMGRIYHNKGDTFYSQKFKGRVTMTVDKSTSTVYMELSSLRSEDTAVYYCATSYVGDWGQGTTVTVSS
VL: B3 VL with N31D, K42G, I44L, F52S, R53S, R66G, Q89L
notes: also called humanized antibody of mab127

Molecular target: T1, human CD73 (huCD73) protein, antigen of …
Assay: SPR Biacore T200; antibody captured on Protein A chip, CD73 in flow; 1:1 Langmuir
From the text: (§1) In this experiment, Biacore instrument was used to determine the affinity of the humanized anti-CD73 antibodies to be tested with human CD73 (huCD73) and monkey CD73 (cynoCD73).
(§2) A certain amount of test antibody was affinity-captured with Protein A biosensing chip (Cat. #29127556, GE), and then a certain concentration of human or monkey CD73 antigen was allowed to flow through the surface of the chip. The reaction signals were detected in real time with Biacore instrument (Biacore T200, GE) to generate a binding and dissociation curve. At the end of each cycle, after the dissociation was completed, the biosensor chip was washed and regenerated with Glycine-HCl, pH1.5 (Cat. #BR-1003-54, GE). The running buffer for the assay was 1×HBS-EP buffer solution (Cat. #BR-1001-88, GE).
(§3) The data obtained from the experiment was fitted against (1:1) Langmuir model using GE Biacore T200 Evaluation version 3.0 software, and the affinity values were obtained, as shown in Table 12 and Table 13 for details.

Row | Kd [nM] | koff [s⁻¹] | kon [M⁻¹ s⁻¹] | Binder
1 | 0.412 | 9.24e-05 | 224000 | B1
2 | 1.85 | 0.000368 | 199000 | B2
3 | 0.0944 | 6.14e-05 | 650000 | B3
4 | 0.257 | 5.81e-05 | 226000 | B4

Molecular target: T2, cynomolgus monkey CD73/NT5E protein …
Assay: ELISA; cynomolgus monkey CD73 coated on plate
Procedure: The cross-binding activity of anti-CD73 antibodies to cynomolgus monkey CD73 protein was tested by ELISA assay. The cynomolgus monkey CD73 fusion protein was directly coated onto a 96-well microtiter plate. The signal strength after the addition of the antibody was used to determine the binding activity of the antibody to cynomolgus monkey CD73. The specific experimental procedures were as follows:
Cynomolgus monkey CD73 (Sino Biological, Cat No. 90192-C08H) was diluted with PBS, pH7.4 (Shanghai BasalMedia, Cat No. B320) buffer to a concentration of 2 μg/ml, was added into the 96-well microtiter plate at 50 μl/well, and was incubated in an incubator at 37° C. for 2 hours. The liquid was discarded, 250 μl/well blocking solution (5% skim milk diluted in PBS) was added, and incubated in an incubator at 37° C. for 3 hours or at 4° C. overnight (16-18 hours) for blocking. After the blocking was finished, the blocking solution was discarded, the plate was washed for 5 times with PBST buffer, 50 μl/well of various concentrations of each of the test antibodies (purified hybridoma antibodies or humanized antibodies, diluted with sample diluent) were added, and incubated in an incubator at 37° C. for 1 hour. After the incubation was finished, the plate was washed for 5 times with PBST, 50 μl/well of HRP-labeled goat anti-mouse secondary antibody (Jackson Immuno Research, Cat No. 115-035-003) or goat anti-human secondary antibody (Jackson Immuno Research, Cat No. 109-035-003) diluted with sample diluent was added, and incubated at 37° C. for 1 hour. The plate was washed for 5 times with PBST, 50 μl/well of TMB chromogenic substrate (KPL, Cat No. 52-00-03) was added, incubated at room temperature for 5-10 min, and 50 μl/well of 1M H₂SO₄ was added to stop the reaction. The absorbance value was read by a microplate reader (Molecular Devices, VERSA max) at a wavelength of 450 nm, and the data was analyzed with GraphPad Prism 5. The binding of anti-CD73 antibody to monkey CD73 was calculated as EC50 value.

Row | EC50 [nM] | Binder
5 | 0.033 | B1
6 | 0.064 | B3
7 | 0.033 | B4

Molecular target: T2, cynomolgus monkey CD73/NT5E protein …
Assay: SPR Biacore T200; antibody captured on Protein A chip, cynoCD73 in flow; 1:1 Langmuir
From the text: as §1, §2, §3

Row | Kd [nM] | koff [s⁻¹] | kon [M⁻¹ s⁻¹] | Binder
8 | 0.166 | 4.24e-05 | 256000 | B1
9 | 0.0489 | 3.45e-05 | 704000 | B3
10 | 0.0699 | 1.86e-05 | 266000 | B4

Source: patent US20220220218A1 (JIANGSU HENGRUI MEDICINE, published 2022)
